Data as given in the supplement of paper PMC9170038.

Test system: MS2 coat protein
Assay: apparent KD of MS2 coat protein; designed switch direction (-1 OFF switch, 1 ON switch): 1; higher = weaker reporter binding
Summary of the method: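 For each design, the apparent KD is the median over clusters of curves fitted to normalised cluster fluorescence. Clusters held RNA switches with common flanks, transcribed on Illumina chips by stalled E. coli RNA polymerase. These were titrated with SNAP-549-labelled MS2 coat protein, doubling from 0.7 or 1.5 nM to 3 µM, without input, with 200 uM small-molecule ligand, or with an oligonucleotide input.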

[1] = Eterna round: R95, input ligand: FMN 200 uM
[2] = Eterna round: R95, input ligand: microRNA oligo, concentration not stated
[3] = Eterna round: R95, input ligand: none
[4] = input ligand: microRNA oligo, concentration not stated

| Sequence | apparent KD of MS2 coat protein [1] | apparent KD of MS2 coat protein [2] | apparent KD of MS2 coat protein [3] | apparent KD of MS2 coat protein (input ligand: FMN 200 uM) | apparent KD of MS2 coat protein [4] | apparent KD of MS2 coat protein (input ligand: none) |
| --- | --- | --- | --- | --- | --- | --- |
| AGAGCCGGCACUGAGGAUAUUCAUAAUAAAACAUGAGGAUCACCCAUGUAGGCCAGAAGGCCUUGGGAGAAGGCAGGUCGGCUCG [Mat - Same State 2 - Mod of UCT - D68] (puzzle: Same State 2) | 17.3 nM | 122 nM | 200 nM | – | – | – |
| GUUACAUGAGGAUCACCCAUGUGUGUGUGGGAGUGAGUGGCUUAGGAUAUCUAUGAUUUUAGUUGAGAGAAGGAGGAUUGCUGU [SS-NG3-LRO08] (Eterna round: R96, puzzle: Same State NG 3) | – | – | – | 439 nM | 158 nM | 347 nM |
| UCGGGCGUACUUGCUGACAUGAGGAUCACCCAUGUCCUUGGGAAGGAUAUGGUUCCGUUUCGGUUCCAGAAGGUCCUGGCUGCU [salish99_SSNG3_r04_317] (Eterna round: R96, puzzle: Same State NG 3) | – | – | – | 30.1 nM | 42.6 nM | 78.2 nM |
| UGGUACAUGGGAGGAUAUCUCAUGGAGACAUGAGGAUCACCCAUGUAGUAGGACCGGAAACGGUGAGAGAAGGCCCAUGUACCU [JL SSNG1 3.73] (Eterna round: R96, puzzle: Same State NG 2) | – | – | – | 26.6 nM | 40.5 nM | 51.5 nM |
| AUCAAUCUAUCUGAGGAUAUCAUGAAAUAAACAUGAGGAUCACCCAUGUGCAGGAAAACUGCAUAUGAGAAGGCAGAUAGAUUGA [salish99_ss2_r3_019] (puzzle: Same State 2) | 63.9 nM | 323 nM | 879 nM | – | – | – |
| UAUCGUUUGAUAGGAUAUCGCUAUACAUGAGGAUCACCCAUGUUUACCACGCUGGUUUUUCAUACCGAGAAGGAUUCUGAUGAG [salish99_SSNG02_r04_005] (Eterna round: R96, puzzle: Same State NG 2) | – | – | – | 36.3 nM | 33.2 nM | 42.2 nM |
| ACAUGAGAGCGAGGAUAUAUUGUACCUACAUGUGACAUGAGGAUCACCCAUGUGGUAAGUAUGACAUAGAAGGCGCAGAUAUGU [Equivalance 91 - Jieux - Same State NG 2] (Eterna round: R96, puzzle: Same State NG 2) | – | – | – | 21.4 nM | 27.8 nM | 33.7 nM |
| GCUCGAUGAUAGGCCUACAUGAGGAUCACCCAUGUGACUGGGCAGGAUAUCUAAAUGCAGAAUGUAGAGAAGGGCCCGUCGAGC [SameState NG3 #52] (Eterna round: R96, puzzle: Same State NG 3) | – | – | – | 269 nM | 69.5 nM | 409 nM |
| AUAAAACAUGAGGAUCACCCAUGUCAACAAAGUCGAGGAUAUGGGCAAAUAAAAUAAGAACCAGAAGGCGAAUAUU [salish99_ss1_r3_037] (puzzle: Same State 1) | 31 nM | 382 nM | 750 nM | – | – | – |
| AACAAUCUAUCUGAGGAUAUCAUGAAAUAAACAUGAGGAUCACCCAUGUGCAGGAAAACUGCAUUUGAGAAGGCAGAUAGAUUGA [salish99_ss2_r3_048] (puzzle: Same State 2) | 14.6 nM | 106 nM | 67.2 nM | – | – | – |
| AUUAUUUAUGCAGGAUAUGAUUAACAUGAGGAUCACCCAUGUGGUGUUGUGAGUAAGGAGAGUGAUCAGAAGGGCAUUUUUUUC [JMF's solution 59] (Eterna round: R96, puzzle: Same State NG 2) | – | – | – | 381 nM | 214 nM | 397 nM |
| GUGUUACAUGAGGAUCACCCAUGUUGUUGUAGAUAAGGAUAUAUGGGAACGAGAGAAAUAAUAGAAGGUAUUAGGC [JR_SS1_Sub060] (puzzle: Same State 1) | – | 77.4 nM | – | – | – | – |
| GAGGGACAUGAGGAUCACCCAUGUGGUAAAUUUAAAGGAUAUUAGUGUGGGAAAGUAGGGUAAGAAGGUUGAUUGG [JR_SS1_Sub086] (puzzle: Same State 1) | – | 87.7 nM | – | – | – | – |
| GCAGGACAUGAGGAUCACCCAUGUUCAAAAUAUUGAGGAUAUGGAUACGGUAUAUCCGAACCAGAAGGCAACCUGC [SS1 Teenbexe 22] (puzzle: Same State 1) | – | 16.6 nM | – | – | – | – |
| AGCUAUUACGAAGGAUAUUCUGACAUGAGGAUCACCCAUGUCUUCAUGAUUUAUUGUGAUCACGUGGAGAAGGUUGUACUAACA [SameState NG2 #27] (Eterna round: R96, puzzle: Same State NG 2) | – | – | – | 90.4 nM | 77.9 nM | 91.4 nM |
| GCCAUCGCAUGAGGAUAUGGCACCGUUUCGGUGCCAGAAGGCAUGUCAAAUGACAUGAGGAUCACCCAUGUAGUUAAGAUGGCA [JL Fiskers NG1ss - 33 mod 9] (Eterna round: R96, puzzle: Same State NG 1) | – | – | – | 29.2 nM | 417 nM | 542 nM |

| Sequence | apparent KD of MS2 coat protein [1] | apparent KD of MS2 coat protein [2] | apparent KD of MS2 coat protein [3] | apparent KD of MS2 coat protein (input ligand: FMN 200 uM) | apparent KD of MS2 coat protein [4] | apparent KD of MS2 coat protein (input ligand: none) |
| --- | --- | --- | --- | --- | --- | --- |
| AGCUAGUACCGAGGAUAUACAUACAUGAGGAUCACCCAUGUAUACAUGAAUUAAUGAGACUACAUGUAGAAGGCGGUACUAGCA [JL SSNG2 1.22] (Eterna round: R96, puzzle: Same State NG 2) | – | – | – | – | 54 nM | – |
| GCUAGUAUUAUUGCUAACAUGAGGAUCACCCAUGUAUGUUGGCAGGAUAUCGUUUGCUUUGCAAACGAGAAGGGCUAAACUAGC [JL SSNG3 1.05] (Eterna round: R96, puzzle: Same State NG 3) | – | – | – | 25.8 nM | 65.4 nM | 71.7 nM |
| CUCAAAACAAGUUGCAGUGUUCGUCUUUCACAUGAGGAUCACCCAUGUAAUAGCCCAGUGGAAGCGCUCGGGCCACC [Ditixe] (puzzle: Sensor for hsa-mir-208a) | 55.3 nM | 28.9 nM | 47.4 nM | – | – | – |
| GGUCCAUCAUGAGGAUAUGGCACCUUAUUGGUGCCAGAAGGCAUGUCUAUUAGACAUGAGGAUCACCCAUGUAUAAAUUGGACC [Eli NG1ss - 91] (Eterna round: R96, puzzle: Same State NG 1) | – | – | – | 108 nM | 192 nM | 1130 nM |
| GGUAUGGACACAGGAUAUGCUAUCCUUUGGGUAGCAGAAGGGUGAACAUGAGGAUCACCCAUGUACGUGCCAGGGCGUGAGCCC [JL SSNG1 1.78] (Eterna round: R96, puzzle: Same State NG 1) | – | – | – | 913 nM | 278 nM | 1620 nM |
| UAUAAACAUGAGGAUCACCCAUGUAAUAAUAUGGGAGGAUAUCAGAAUGUAUGUAUGUAAUGAGAAGGCCUAAUAU [Mat - Same State 1 - Mod of Eli - D70] (puzzle: Same State 1) | 54.4 nM | 268 nM | 1270 nM | – | – | – |
| GAGUAGUUGAAAGGAUAUAGAUUGUUGUAGGAUCUAGAAGGUUCUAACAUGAGGAUCACCCAUGUAGGACUAUUCCUGUGUAUC [Parity 87 - Jieux - Same State NG 1] (Eterna round: R96, puzzle: Same State NG 1) | – | – | – | 11.5 nM | 8.94 nM | 13.1 nM |
| GGUAUCAUCACAGGAUAUGCUAUCCUUUGGGUAGCAGAAGGGUGGAACAUGAGGAUCACCCAUGUGGUGCCAGGGCGUGAGCCC [JL SSNG1 1.89] (Eterna round: R96, puzzle: Same State NG 1) | – | – | – | 177 nM | 583 nM | 1880 nM |
| CAUCGUUUGAUAGGAUAUCGCUAUACAUGAGGAUCACCCAUGUUUACCACGCUGGUUUUUCAUACCGAGAAGGAUUCUGAUGAG [salish99_SSNG02_r04_012] (Eterna round: R96, puzzle: Same State NG 2) | – | – | – | 55.3 nM | 38.3 nM | 47.6 nM |
| CCAUAGUACAAUUUAGAUCUACAUGAGGAUCACCCAUGUACUGAGGAUAUCAGCUCGUUUAGAGCUGAGAAGGCAGAAGUACUU [SSNG3/6-A3] (Eterna round: R96, puzzle: Same State NG 3) | – | – | – | 34.2 nM | 64.8 nM | 102 nM |
| AUAAAACAUGAGGAUCACCCAUGUCAACAAAGUCGAGGAUAUGUGCAAAUAAAAUAAGAACCAGAAGGCGAAUAAU [salish99_ss1_r3_049] (puzzle: Same State 1) | 16.2 nM | 22.3 nM | 37.9 nM | – | – | – |
| UUUUCGAACCGAGGAUAUCCUUAUAAGAAACAUGAGGAUCACCCAUGUAAAGGGAAUUAUUUGAAGGAGAAGGCGGAUUUUGUU [JR_SSNG2_Sub053] (Eterna round: R96, puzzle: Same State NG 2) | – | – | – | – | 33.5 nM | – |
| GUACAGAUCACAGGAUAUCACGUCGAAUAGACGUGAGAAGGGUGAUCACACAUGAAUAUUAAUACAUGAGGAUCACCCAUGUAC [SSNG1/16-A1] (Eterna round: R96, puzzle: Same State NG 1) | – | – | – | 71 nM | 14.1 nM | 20.4 nM |
| GGAGCCGGCACCGAGGAUAUUCAUAUUAAAACAUGAGGAUCACCCAUGUAGGCCAGAAGGCUUUGGGAGAAGGCGGAUCGGCUCG [Xeonanis - 3] (Eterna round: R96, puzzle: Same State 2) | – | – | – | 22.1 nM | 148 nM | 568 nM |
| UAGAGAGGAAGCGAGGAUAUCGUGUGAGGUACAUGAGGAUCACCCAUGUUUGAUGUUGAGAGAGGCGAGAAGGCGCAGGAGAUAA [JR_SS2_Sub085] (puzzle: Same State 2) | 31.9 nM | 32.4 nM | 34.1 nM | – | – | – |
